For seven molecules, binding result and Kd results are on record in paper PMC2323325, “Conserved Regulation of MAP Kinase Expression by PUF RNA-Binding Proteins”.

For one data set, the target named is PUM2 (Homo sapiens, UniProt Q8TB72 706-1048). As to the kind of experiment: EMSA; Not stated; gel shift assays performed as described in ref 49. Particulars: protein: recombinant. For orientation: In EMSA bound probe runs differently from free probe, usually more slowly.
For the next data set, the target named is T1, FBF-2 (Caenorhabditis elegans, UniProt Q09312 162-566).
T1 sequence: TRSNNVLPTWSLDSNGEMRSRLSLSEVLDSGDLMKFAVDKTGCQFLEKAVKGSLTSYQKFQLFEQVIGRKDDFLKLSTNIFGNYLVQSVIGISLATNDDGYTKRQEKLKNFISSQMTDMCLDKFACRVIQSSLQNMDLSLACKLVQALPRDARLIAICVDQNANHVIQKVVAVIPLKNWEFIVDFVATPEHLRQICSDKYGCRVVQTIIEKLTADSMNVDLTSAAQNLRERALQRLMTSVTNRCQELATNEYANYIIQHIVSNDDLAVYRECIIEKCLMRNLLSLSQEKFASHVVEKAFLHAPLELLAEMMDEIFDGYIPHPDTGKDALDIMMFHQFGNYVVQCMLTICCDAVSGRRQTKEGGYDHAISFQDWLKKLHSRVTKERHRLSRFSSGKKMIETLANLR
The data set is described as above. The settings on record: protein: recombinant.

Sequence of PUM2 (Q8TB72 706-1048): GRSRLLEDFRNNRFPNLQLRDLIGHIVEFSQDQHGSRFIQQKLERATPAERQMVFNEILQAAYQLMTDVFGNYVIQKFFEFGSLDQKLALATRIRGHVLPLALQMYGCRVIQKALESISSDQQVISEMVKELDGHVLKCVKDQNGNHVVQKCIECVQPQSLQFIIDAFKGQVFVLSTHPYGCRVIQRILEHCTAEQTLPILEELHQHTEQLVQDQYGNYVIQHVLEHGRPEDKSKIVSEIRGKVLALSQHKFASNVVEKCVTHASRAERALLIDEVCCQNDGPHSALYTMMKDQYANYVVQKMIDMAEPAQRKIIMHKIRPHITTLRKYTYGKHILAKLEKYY

On to AGUAUAUUUGAAACUGUAAAUAUGUUUG (ssRNA) [p38alpha NREa], for which the binding result with PUM2 was “binds”.

With AGGAGAGAAGAAAGUGUAGAUAGUUAAA (ssRNA) [p38alpha NREb], the binding result with PUM2 was “binds”. On to UAUUUUACGUAUUUACAAAUAUAUUCAU (ssRNA) [mpk-1 FBEb*], for which the binding result with FBF-2 is listed as “no binding”. For the molecule AGUUUCUUUUUCGAACAAUCAUAAUCCA (ssRNA) [mpk-1 FBEa*], the binding result with FBF-2 is listed as “no binding”. Regarding UUCAUGAAAAUAAAUGUACAUCUUCUAU (ssRNA) [Erk2 NRE], the binding result with PUM2 was “binds”. The Kd is the constant that tells how readily two partners part at equilibrium. UAUUUUACGUAUUUUGUAAUAUAUUCAU (ssRNA) [mpk-1 FBEb]: the Kd with FBF-2 is approximately 320 nM.

As to AGUUUCUUUUUCGAUGUAUCAUAAUCCA (ssRNA) [mpk-1 FBEa], the Kd in the data set with FBF-2 was approximately 93 nM.
